Consider one molecule from patent US20070048268A1 (ZymoGenetics, published 2007).

The assay deals with biotinylated murine IL-21 (murine, UniProt Q9ES17 18-146). Kind of assay: flow cytometry on MOLT-13, HuT-78, HuT-102, DEL and YT cells, 40 ng/ml to 1000 ng/ml, Streptavidin-PE. In general terms: A flow cytometer gives signals particle by particle.

Experimental: Cells were analyzed on a FACSScan using CellQuest software (Becton Dickinson, Mountain View, Calif.).

B1: human IL-21 receptor (receptor)
chain: not shown
notes: also called zalpha11 receptor; zalpha11
B1: the binding result is reported as “binds”.
